Experiment [1] has as its target FcγRIIIA expressed on cells (UniProt P08637 17-254). Briefly: FACS.
The target of experiment [2] is T1, FcγRIIB expressed on cells (UniProt P31994 43-310).
T1 chain: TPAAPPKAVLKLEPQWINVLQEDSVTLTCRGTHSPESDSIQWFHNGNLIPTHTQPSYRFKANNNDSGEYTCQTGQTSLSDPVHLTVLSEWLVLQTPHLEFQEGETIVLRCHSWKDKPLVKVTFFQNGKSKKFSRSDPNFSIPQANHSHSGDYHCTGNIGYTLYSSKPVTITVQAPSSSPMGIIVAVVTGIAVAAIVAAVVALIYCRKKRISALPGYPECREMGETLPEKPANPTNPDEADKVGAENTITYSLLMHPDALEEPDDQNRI
Briefly: FACS.

Numbering of substitutions follows the chain as printed. Numbers in names are those of the source.

Chain of FcγRIIIA expressed on cells (P08637 17-254): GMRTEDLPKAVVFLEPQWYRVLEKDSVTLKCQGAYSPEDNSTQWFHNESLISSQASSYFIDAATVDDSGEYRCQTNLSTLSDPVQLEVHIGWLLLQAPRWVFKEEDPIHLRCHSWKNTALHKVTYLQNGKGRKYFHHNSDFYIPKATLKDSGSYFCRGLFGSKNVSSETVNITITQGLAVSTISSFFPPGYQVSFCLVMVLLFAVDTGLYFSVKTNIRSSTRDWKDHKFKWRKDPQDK

B1: V263L (protein)
chain: APELLGGPSVFLFPPKPKDTLMISRTPEVTCVLVDVSHEDPEVKFNWYVDGVEVHNAKTKPREEQYNSTYRVVSVLTVLHQDWLNGKEYKCKVSNKALPAPIEKTISKAK
On to B1, for which the EC50 stood at 1.52 nM in experiment [1] and 1.8 nM in experiment [2].

B2: V273S (protein)
chain: B1 chain with L33V, V43S
As for B2, the EC50 stood at 1.33 nM in experiment [1] and 1.72 nM in experiment [2].

B3: V273F (protein)
chain: B1 chain with L33V, V43F
As for B3, the results for the 50% effective concentration (EC50) in experiment [1] and in experiment [2] were 2.01 nM and 1.08 nM, respectively.

B4: V273M (protein)
chain: B1 chain with L33V, V43M
Consider B4, for which the results for the half-maximal effective concentration (EC50) in experiment [1] and in experiment [2] were 1.59 nM and 1.63 nM, respectively.

B5: V273E (protein)
chain: B1 chain with L33V, V43E
Regarding B5, the EC50 was determined as 1.78 nM in experiment [1] and 1.66 nM in experiment [2].

B6: V273C (protein)
chain: B1 chain with L33V, V43C
On to B6, for which the EC50 is 1.19 nM in experiment [1] and 2.03 nM in experiment [2].

B7: V305K (protein)
chain: B1 chain with L33V, V75K
Turning to B7, the EC50 in experiment [1] came out at 0.51 nM; in experiment [2], 1.93 nM.

B8: V273Y (protein)
chain: B1 chain with L33V, V43Y
On to B8, for which the EC50 turned out to be 3.19 nM in experiment [1] and 1.18 nM in experiment [2].

B9: V273L (protein)
chain: B1 chain with L33V, V43L
As for B9, the EC50 in experiment [1] is 0.69 nM; in experiment [2] it was 1.66 nM.

B10: V266L (protein)
chain: B1 chain with L33V, V36L
As to B10, the concentration for a half-maximal effect (EC50) in experiment [1] is 0.76 nM; in experiment [2] it was 2.22 nM.

B11: V305W (protein)
chain: B1 chain with L33V, V75W
Regarding B11, the EC50 in experiment [1] came out at 0.74 nM; in experiment [2], 2.86 nM.

The values above are taken from patent US20140377253A1 (published 2014).
